What was measured:
[1] = molecular target: T1, endogenous PKCalpha from Jurkat T cell lysate (human, UniProt P17252 2-672); experiment: GST pull down from Jurkat T cell lysate, immunoblot
T1 construct: also called PKCα
Experimental: (§1) GST pull down assay: 1×10⁷ Jurkat T cells were lysed in 1 ml lysis buffer (25 mM MES pH 6.5, 5 mM NaF, 1 mM Na₃VO₄, 2 mM EDTA, 150 mM NaCl, 0.5% TritonX-100, 50 μg/ml aprotinin and leupeptin). Lysates were precleared for 30 min at 4° C. Thereafter incubation with purified recombinant GST-NR2F6 fusion proteins for 3 h at 4° C., 5× washing in lysis buffer, SDS-PAGE under reducing conditions on Bis/Tris-buffered gels (Novex, San Diego, Calif.) was performed. Proteins were transferred onto a polyvinyl-difluoridon (PVDF) membrane (Millipore, Bedford, Mass.) by semi-dry blotting (90 mA, 80 min, 4° C.). […] Peroxidase-conjugated antibodies (Pierce, Rockford, Ill.) served as secondary reagent (1:5,000). For antigen detection enhanced chemiluminescence was used (Super Signal, Pierce, Rockford, Ill.).

[2] = molecular target: T2, endogenous PKCtheta from Jurkat T cell lysate (human, UniProt Q04759 1-706); experiment: as above
T2 construct: also called PKCθ
Experimental: as §1

T2 sequence (Q04759 whole entry): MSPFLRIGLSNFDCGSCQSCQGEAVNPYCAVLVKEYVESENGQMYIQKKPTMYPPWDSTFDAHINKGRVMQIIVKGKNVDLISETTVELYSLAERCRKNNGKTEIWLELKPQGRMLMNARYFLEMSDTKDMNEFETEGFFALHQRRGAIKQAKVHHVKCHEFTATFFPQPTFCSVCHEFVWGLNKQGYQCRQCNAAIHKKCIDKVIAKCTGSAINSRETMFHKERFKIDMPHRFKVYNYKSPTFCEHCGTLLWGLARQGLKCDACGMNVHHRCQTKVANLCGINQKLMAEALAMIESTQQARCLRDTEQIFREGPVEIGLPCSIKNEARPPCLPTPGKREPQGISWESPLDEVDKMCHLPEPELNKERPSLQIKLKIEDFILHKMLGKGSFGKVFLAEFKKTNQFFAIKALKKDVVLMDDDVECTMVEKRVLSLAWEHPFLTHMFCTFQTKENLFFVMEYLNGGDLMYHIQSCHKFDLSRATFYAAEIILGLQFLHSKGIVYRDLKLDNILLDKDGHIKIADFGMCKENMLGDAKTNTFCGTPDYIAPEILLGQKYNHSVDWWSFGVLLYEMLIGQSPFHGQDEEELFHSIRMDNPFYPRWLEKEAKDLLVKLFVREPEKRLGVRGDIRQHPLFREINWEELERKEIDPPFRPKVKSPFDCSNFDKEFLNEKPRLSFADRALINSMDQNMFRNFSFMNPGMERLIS

B1: GST-NR2F6 fusion protein, wild-type, full-length (purified recombinant) (other)
chain: MAMVTGGWGGPGGDTNGVDKAGGYPRAAEDDSASPPGAASDAEPGDEERPGLQVDCVVCGDKSSGKHYGVFTCEGCKSFFKRSIRRNLSYTCRSNRDCQIDQHHRNQCQYCRLKKCFRVGMRKEAVQRGRIPHSLPGAVAASSGSPPGSALAAVASGGDLFPGQPVSELIAQLLRAEPYPAAAGRFGAGGGAAGAVLGIDNVCELAARLLFSTVEWARHAPFFPELPVADQVALLRLSWSELFVLNAAQAALPLHTAPLLAAAGLHAAPMAAERAVAFMDQVRAFQEQVDKLGRLQVDSAEYGCLKAIALFTPDACGLSDPAHVESLQEKAQVALTEYVRAQYPSQPQRFGRLLLRLPALRAVPASLISQLFFMRLVGKTPIETLIRDMLLSGSTFNWPYGSGQ
notes: GST is placed at the N-terminus from the name 'GST-NR2F6' only; also called recombinant NR2F6; not shown: glutathione S-transferase (GST) fusion tag
binding result [1]: binds | binding result [2]: binds

From patent publication US20110239311A1 (MEDIZINISCHE UNIVERSITAT INNSBRUCK, published 2011)
